Where a chain is given by its changes, count along the chain named. Names may count otherwise.
B1: H237-MB373/MRAL-k0 (antibody, mouse IgG1, kappa)
heavy: QVQLQESGPGLVKPSETLSLTCAVSGHSISHDHAWSWVRQPPGEGLEWIGFISYSGITNYNPSLQGRVTISRDNSKNTLYLQMNSLRAEDTAVYYCARSLARTTAMDYWGEGTLVTVSSAKTTPPSVYPLAPGSAAQTNSMVTLGCLVKGYFPEPVTVTWNSGSLSSGVHTFPAVLQSDLYTLSSSVTVPSSTWPSETVTCNVAHPASSTKVDKKIVPRDCGCKPCICEAYEVEDVFIFPPKPKDVLTITLTPKVTCVVVDISKDDPEVQFSWFVDDVEVHTAQTQPREEQFNSTFRSVSELPIMHQDWLNGKEFKCRVNSAAFPAPIEKTISKTKGRPKAPQVYTIPPPKEQMAKDKVSLTCMITDFFPEDITVEWQWNGQPAENYKNTQPIMDTDGSYFVYSKLNVQKSNWEAGNTFTCSVLHEGLHNHHTEKSLSHSPGK
light: not shown
notes: mIgG1 with T230E/V231A/P232Y/S238E/S239D (EU); template T1; copies: 2 + 2
B2: H237-MB379/MRAL-k0 (antibody, mouse IgG1, kappa)
heavy: B1 heavy with A230V
light: not shown
notes: mIgG1 with T230E/P232Y/S238E/S239D (EU); template T5; copies: 2 + 2
B3: H237-MB382/MRAL-k0 (antibody, mouse IgG1, kappa)
heavy: B1 heavy with A230D
light: not shown
notes: mIgG1 with T230E/V231D/P232Y/S238E/S239D (EU); template T2; copies: 2 + 2
B4: H237-MB387/MRAL-k0 (antibody, mouse IgG1, kappa)
heavy: B1 heavy with A230N
light: not shown
notes: mIgG1 with T230E/V231N/P232Y/S238E/S239D (EU); template T3; copies: 2 + 2
B5: H237-MB389/MRAL-k0 (antibody, mouse IgG1, kappa)
heavy: B1 heavy with A230P, Y231A
light: not shown
notes: mIgG1 with T230E/V231P/P232A/S238E/S239D (EU); template T6; copies: 2 + 2
B6: H237-MB390/MRAL-k0 (antibody, mouse IgG1, kappa)
heavy: B1 heavy with A230P, Y231N
light: not shown
notes: mIgG1 with T230E/V231P/P232N/S238E/S239D (EU); template T8; copies: 2 + 2
B7: H237-MB397/MRAL-k0 (antibody, mouse IgG1, kappa)
heavy: B1 heavy with A230T
light: not shown
notes: mIgG1 with T230E/V231T/P232Y/S238E/S239D (EU); template T4; copies: 2 + 2
B8: H237-MB425/MRAL-k0 (antibody, mouse IgG1, kappa)
heavy: B1 heavy with E229I, A230P, Y231A
light: not shown
notes: mIgG1 with T230I/V231P/P232A/S238E/S239D (EU); template T7; copies: 2 + 2

Target: T1, mouse FcγRIII extracellular domain with C-terminal His tag (mouse, UniProt P08508 31-215)
T1 construct: Made on the basis of NCBI NP-034318.2; also called mFcγRIII; mFcgRIII
T1 chain: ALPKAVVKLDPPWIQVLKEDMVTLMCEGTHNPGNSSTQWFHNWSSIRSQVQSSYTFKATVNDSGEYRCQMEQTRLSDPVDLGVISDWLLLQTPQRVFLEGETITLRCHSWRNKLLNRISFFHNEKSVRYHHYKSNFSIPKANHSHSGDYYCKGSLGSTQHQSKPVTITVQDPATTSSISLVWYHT
Test: SPR Biacore T200
Method: (§1) Each altered antibody was analyzed for its interaction with each Fcγ receptor prepared above using Biacore T100 (GE Healthcare Japan Corp.), Biacore T200 (GE Healthcare Japan Corp.), Biacore A100, or Biacore 4000. The running buffer used was HBS-EP+ (GE Healthcare Japan Corp.). The assay temperature was set to 25° C. The sensor chips used were chips prepared by immobilizing Protein L (ACTIGEN or BioVision) onto Series S Sensor Chip CM5 (GE Healthcare Japan Corp.) or Series S Sensor Chip CM4 (GE Healthcare Japan Corp.) by the amine coupling method.
(§2) In order to calculate the KD value of each altered antibody for FcγR, kinetic analysis was conducted according to the following method: first, the antibody of interest was captured onto any of these chips and allowed to interact with mFcγR diluted with a running buffer. For the obtained sensorgram, the assay results were globally fit into the 1:1 Langmuir binding model using Biacore Evaluation Software to calculate an association rate constant ka (L/mol/s) and a dissociation rate constant kd (1/s). From these values, the dissociation constant KD (mol/L) was calculated.

Row | Binder | Kd
1 | B1 | 18.2 nM
2 | B2 | 23.2 nM
3 | B3 | 23 nM
4 | B4 | 16.9 nM
5 | B5 | 40.6 nM
6 | B6 | 23.7 nM
7 | B7 | 14.6 nM
8 | B8 | 51 nM

target: T2, mouse FcγRII extracellular domain with C-terminal His tag (mouse, UniProt P08101 30-210); test: SPR Biacore T200
T2 construct: Made on the basis of NCBI NP-034317.1; also called mFcγRII; mFcgRII
T2 sequence: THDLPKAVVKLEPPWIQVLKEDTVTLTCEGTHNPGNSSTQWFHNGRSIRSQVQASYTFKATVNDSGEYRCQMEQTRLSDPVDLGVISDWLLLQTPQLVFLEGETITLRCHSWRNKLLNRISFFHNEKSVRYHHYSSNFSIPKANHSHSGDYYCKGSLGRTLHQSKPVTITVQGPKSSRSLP
Method: as §1, §2

Row | Binder | Kd
9 | B1 | 0.538 nM
10 | B2 | 0.768 nM
11 | B3 | 0.655 nM
12 | B4 | 0.659 nM
13 | B5 | 0.858 nM
14 | B6 | 0.403 nM
15 | B7 | 0.379 nM
16 | B8 | 1.08 nM

target: T2, mouse FcγRII extracellular domain with …; test: SPR Biacore T200; KD mFcγRIII / KD mFcγRII

Row | Binder | I/A (mFcγRII selectivity) | relative I/A (mFcγRII selectivity) (mIgG1 = 1)
17 | B1 | 33.8 | 25.2
18 | B2 | 30.2 | 22.5
19 | B3 | 35.1 | 26.2
20 | B4 | 25.6 | 19.1
21 | B5 | 47.3 | 35.3
22 | B6 | 59 | 44
23 | B7 | 38.7 | 28.9
24 | B8 |  | 35.2

Target: T1, mouse FcγRIII extracellular domain with …
Test: SPR Biacore T200
Remark: another data set of the same source

Row | Binder | Kd | relative mFcγRIII-binding activity (mIgG1 = 1)
25 | B1 | 18.2 nM | 15.5
26 | B2 | 23.2 nM | 12.2
27 | B3 | 23 nM | 12.3
28 | B4 | 16.9 nM | 16.7
29 | B5 | 40.6 nM | 7
30 | B6 | 23.7 nM | 11.9
31 | B7 | 14.6 nM | 19.3
32 | B8 |  | 5.5

target: T2, mouse FcγRII extracellular domain with …; test: SPR Biacore T200; remark: another data set of the same source

Row | Binder | Kd | relative mFcγRII-binding activity (mIgG1 = 1)
33 | B1 | 0.538 nM | 390
34 | B2 | 0.768 nM | 273
35 | B3 | 0.655 nM | 321
36 | B4 | 0.659 nM | 319
37 | B5 | 0.858 nM | 245
38 | B6 | 0.403 nM | 522
39 | B7 | 0.379 nM | 555
40 | B8 |  | 194

Target: T1, mouse FcγRIII extracellular domain with …
Test: SPR Biacore T200
Remark: another data set of the same source
Method: as §1, §2

Row | Binder | relative mFcγRIII-binding activity (mIgG1 = 1)
41 | B1 | 15.5
42 | B2 | 12.2
43 | B3 | 12.3
44 | B4 | 16.7
45 | B5 | 7
46 | B6 | 11.9
47 | B7 | 19.3
48 | B8 | 5.5

target: T2, mouse FcγRII extracellular domain with …; test: SPR Biacore T200; remark: another data set of the same source
Method: as §1, §2

Row | Binder | relative mFcγRII-binding activity (mIgG1 = 1)
49 | B1 | 390
50 | B2 | 273
51 | B3 | 321
52 | B4 | 319
53 | B5 | 245
54 | B6 | 522
55 | B7 | 555
56 | B8 | 194

Reference: US20150203577A1 (Chugai, published 2015)
